According to paper PMC2938230 (Nucleic Acids Research, 2010):

Target: T1, GAL4 DBD-hRARγ (human, UniProt P13631 1-454)
T1 sequence (looked up): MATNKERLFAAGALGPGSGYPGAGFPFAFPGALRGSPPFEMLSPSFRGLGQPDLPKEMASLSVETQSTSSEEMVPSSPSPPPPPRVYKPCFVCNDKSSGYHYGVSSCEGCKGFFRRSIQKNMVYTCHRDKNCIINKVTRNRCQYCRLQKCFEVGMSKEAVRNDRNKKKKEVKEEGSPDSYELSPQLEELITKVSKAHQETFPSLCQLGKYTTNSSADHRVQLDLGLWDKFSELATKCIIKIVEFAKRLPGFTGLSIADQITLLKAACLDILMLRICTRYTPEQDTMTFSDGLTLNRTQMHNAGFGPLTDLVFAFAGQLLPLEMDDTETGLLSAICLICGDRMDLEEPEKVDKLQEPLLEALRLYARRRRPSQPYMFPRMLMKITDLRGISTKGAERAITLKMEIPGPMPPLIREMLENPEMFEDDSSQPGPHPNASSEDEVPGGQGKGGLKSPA
Test: two-hybrid

- fold interaction relative to RARα: 3 fold
B1: GAL4 AD-hADA3 (pACT2) (natural protein, human, UniProt O75528-1 1-432, looked up)
chain: MSELKDCPLQFHDFKSVDHLKVCPRYTAVLARSEDDGIGIEELDTLQLELETLLSSASRRLRVLEAETQILTDWQDKKGDRRFLKLGRDHELGAPPKHGKPKKQKLEGKAGHGPGPGPGRPKSKNLQPKIQEYEFTDDPIDVPRIPKNDAPNRFWASVEPYCADITSEEVRTLEELLKPPEDEAEHYKIPPLGKHYSQRWAQEDLLEEQKDGARAAAVADKKKGLMGPLTELDTKDVDALLKKSEAQHEQPEDGCPFGALTQRLLQALVEENIISPMEDSPIPDMSGKESGADGASTSPRNQNKPFSVPHTKSLESRIKEELIAQGLLESEDRPAEDSEDEVLAELRKRQAELKALSAHNRTKKHDLLRLAKEEVSRQELRQRVRMADNEVMDAFRKIMAARQKKRTPTKKEKDQAWKTLKERESILKLLDG
